According to patent US20100167390, “Novel Oligonucleotide and NF-kB Decoy Comprising the Same” (published 2010):

Target: NF-kB p65 (RelA) (UniProt Q04206 Q04206:1-551)
Assay: competition; primary screen 2.10
Conditions: protein: extract; tags: TPA and CI-stimulated Jurkat nuclear extract, Active Motif TransAM kit
Method: The measurement was performed in accordance with the instructions attached to the kit. The kit was made for quantifying the NF-κB bound to the solid phase by ELISA after adding an NF-κB solution to the wells in which the NF-κB (p65 protein) consensus binding sequence was immobilized and after washing the resultant. By this measurement method, the higher the binding capacity of the oligonucleotide to the NF-κB, the smaller amount of the NF-κB quantified by the ELISA.
More concretely, the above-described measurement was carried out as follows concretely: Each SODN solution was serially diluted with Complete Binding Buffer contained in the kit to prepare test samples (common ratio: 3-fold, 4 times, n=3). […] After allowing coloration for 10 minutes, the Stop Solution was added to stop the reaction, and the absorbances at 450 nm and 630 nm were measured.
The absorbance at 630 nm was subtracted from the absorbance at 450 nm and the mean value of the blanks was further subtracted from the resultant, and the percentage of the mean value of each concentration based on the mean value of the controls was calculated. The concentration at which the calculated value was 50% (i.e., at which the binding was inhibited by 50%) was calculated from the regression lines between two points interposing 50% (an analysis software Graph Pad PRISM 4, GraphPad SOFTWARE was used). […]

Sequence of NF-kB p65 (RelA) (Q04206 whole entry, one chain of several): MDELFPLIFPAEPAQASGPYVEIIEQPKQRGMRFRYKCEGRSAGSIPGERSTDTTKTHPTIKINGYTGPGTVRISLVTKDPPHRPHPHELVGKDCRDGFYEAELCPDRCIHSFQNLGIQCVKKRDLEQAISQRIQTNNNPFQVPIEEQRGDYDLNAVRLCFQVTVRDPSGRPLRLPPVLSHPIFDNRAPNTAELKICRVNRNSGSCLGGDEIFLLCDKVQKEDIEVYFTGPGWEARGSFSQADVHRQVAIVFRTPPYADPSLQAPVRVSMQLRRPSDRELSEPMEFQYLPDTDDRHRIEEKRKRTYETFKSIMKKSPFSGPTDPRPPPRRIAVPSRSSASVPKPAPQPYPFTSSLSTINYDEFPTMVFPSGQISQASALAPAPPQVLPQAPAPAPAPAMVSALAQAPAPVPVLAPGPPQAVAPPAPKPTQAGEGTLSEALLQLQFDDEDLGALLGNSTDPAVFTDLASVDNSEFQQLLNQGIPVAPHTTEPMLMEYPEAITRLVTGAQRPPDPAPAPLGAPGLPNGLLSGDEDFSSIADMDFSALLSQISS

B1: SODN36 (dsDNA)
DNA 1: CTCGGGATTTCCCAGCTCG
DNA 2: CGAGCTGGGAAATCCCGAG
modifications: PS all bonds, both strands
IC50: 2.61 nM
